{
  "source": "patent US20230272051A1",
  "about": "(CENTIVAX, published 2023)",
  "binders": {"B1": {"name": "COVID19_P13_G12 (scFv, V domains shown)", "VH": "QVQLVQSGAEVKKPGSSVKVSCKASGYTFINYEIHWVRQAPGQGLEWMGGITPIFGTANYAQKFQGRVTITADESTSTAYMELSSLRSEDTAVYYCARDTVMGGMDVWGQGTLVTVSS", "VL": "SSYVLTQPPSVSVAPGKTARITCGGNNIGSKSVHWYQQKPGQAPVLVIYYDSDRPSGIPERFSGSNSGNTATLTISRVEAGDEADYYCQVWDSSSDYVFGGGTKLTVLA"}, "B2": {"name": "COVID19_P01_B06 (scFv, V domains shown)", "VH": "QVQLVQSGAEVKKPGSSVKVSCKASGYTFSAYYMHWVRQAPGQGLEWMGGITPLFGTPSYAQKFQGRVTITADESTSTAYMELSSLRSEDTAVYYCALETVMGGVGVWGQGTLVTVSS", "VL": "B1 VL with G81V"}, "B3": {"name": "COVID19_P13_D11 (scFv, V domains shown)", "VH": "B1 VH with T28S, I30N, N31A, Y32F, E33Y, T52I, R98L, D99E", "VL": "B1 VL with S93G"}, "B4": {"name": "COVID19_P14_C01 (scFv, V domains shown)", "VH": "B1 VH with I30S, N31D, Y32F, E33Y, I34L, R98M, D99E", "VL": "B1 VL"}, "B5": {"name": "COVID19_P02_C07 (scFv, V domains shown)", "VH": "B1 VH with I30S, N31S, E33Y, T52I, T57E, N59E, Q62H, R98M, D99E", "VL": "B1 VL"}, "B6": {"name": "COVID19_P01_G05 (scFv, V domains shown)", "VH": "B1 VH with I30T, N31D, Y32F, E33Y, T52I, R98L, D99E", "VL": "B1 VL with D96H"}, "B7": {"name": "COVID19_P13_A08 (scFv, V domains shown)", "VH": "B1 VH with E33D, H35N", "VL": "B1 VL with S94R"}, "B8": {"name": "COVID19_P13_H02 (scFv, V domains shown)", "VH": "B1 VH with I30T, N31G, Y32F, E33Y, I34M, H35Q, F55L, D99E, T100I", "VL": "B1 VL with V90S"}, "B9": {"name": "COVID19_P13_D01 (scFv, V domains shown)", "VH": "B1 VH with I30S, N31D, Y32F, E33D, H35N, T52I, A97G, R98M, D106T, V107S", "VL": "B1 VL with S95H"}, "B10": {"name": "COVID19_P14_D07 (scFv, V domains shown)", "VH": "B1 VH with I30S, N31S, Y32F, E33Y, T52I, T57E, N59E, Q62H, R98M, D99E", "VL": "B1 VL"}, "B11": {"name": "COVID19_P01_C09 (scFv, V domains shown)", "VH": "B1 VH with I30T, N31S, Y32F, E33D, T52I, R98Y, D99E", "VL": "B1 VL with D96Y"}, "B12": {"name": "COVID19_P14_B08 (scFv, V domains shown)", "VH": "B2 VH with S30T, A31S, M34V, T52L, L54I, F55L, S59H, V105M, G106T, V107A", "VL": "B1 VL"}, "B13": {"name": "COVID19_P13_B12 (scFv, V domains shown)", "VH": "B1 VH with I30T, N31D, Y32F, E33H, I34M, T52I, R98L, D99E", "VL": "B1 VL"}, "B14": {"name": "COVID19_P02_D10 (scFv, V domains shown)", "VH": "B1 VH with T28M, I30T, N31E, Y32F, E33Y, I34M, T52I, I54V, F55S, D99E", "VL": "B1 VL"}, "B15": {"name": "COVID19_P01_H04 (scFv, V domains shown)", "VH": "B1 VH with T28P, I30S, N31S, H35N, R98D, D99E", "VL": "B1 VL with S95N"}, "B16": {"name": "COVID19_P01_E12 (scFv, V domains shown)", "VH": "QVQLVQSGAEVKKPGSSVKVSCKASGYTFTTYDINWVRQAPGQGLEWMGWINPNSGGTNYAQKFQGRVTITADESTSTAYMELSSLRSEDTAVYYCARDTYWGGMDVWGQGTLVTVSS", "VL": "B1 VL with Y50D, D96F"}, "B17": {"name": "COVID19_P13_C07 (scFv, V domains shown)", "VH": "QVQLVQSGAEVKKPGSSVKVSCKASGGTFSRYDINWVRQAPGQGLEWMGIINPSGGSTTYAQKFQGRVTITADESTSTAYMELSSLRSEDTAVYYCAHDTVMGGMDVWGQGTLVTVSS", "VL": "B1 VL with D96Y"}, "B18": {"name": "COVID19_P14_D11 (scFv, V domains shown)", "VH": "QVQLVQSGAEVKKPGSSVKVSCKASGYTFNRFAMTWVRQAPGQGLEWMGTINPSGGSTIYTQRFQGRVTITADESTSTAYMELSSLRSEDTAVYYCGHDTVMGGMGEWGQGTLVTVSS", "VL": "B1 VL with V90S, W91T"}, "B19": {"name": "COVID19_P14_C12 (scFv, V domains shown)", "VH": "B16 VH with W50I, N52D, N54I, S55G, G57T, Y101V, W102G, G103F", "VL": "B1 VL with Y50D, D96L"}, "B20": {"name": "COVID19_P02_H04 (scFv, V domains shown)", "VH": "B1 VH with I30S, N31S, Y32F, E33H, H35N, T57I, R98L, D99E", "VL": "B1 VL with V90S, S95G"}, "B21": {"name": "COVID19_P01_E06 (scFv, V domains shown)", "VH": "QVQLVQSGAEVKKPGSSVKVSCKASGCTFTRFTMHWVRQAPGQGLEWMGGITPIFGITNYAQKFQGRVTITADESTSTAYMELSSLRSEDTAVYYCAHDTVMGGMEEWGQGTLVTVSS", "VL": "B1 VL with S95N"}},
  "note": "Residue numbers refer to the chain shown, from its start.",
  "data": [
    {"molecular_target": "T1, SARS-CoV-2 Receptor Binding Domain (RBD) protein (SARS-CoV-2, UniProt P0DTC2 319-541)", "T1 construct": "also called Sars-Cov-2 (COV2)", "assay": "SPR (Carterra LSA)", "units": {"Kd": "nM"}, "values": [
      {"binder": "B1", "Kd": "< 50"},
      {"binder": "B2", "Kd": "< 50"},
      {"binder": "B3", "Kd": "< 50"},
      {"binder": "B4", "Kd": "< 50"},
      {"binder": "B5", "Kd": "< 50"},
      {"binder": "B6", "Kd": "< 50"},
      {"binder": "B7", "Kd": "< 50"},
      {"binder": "B8", "Kd": "< 50"},
      {"binder": "B9", "Kd": "< 50"},
      {"binder": "B10", "Kd": "< 50"},
      {"binder": "B11", "Kd": "< 50"},
      {"binder": "B12", "Kd": "< 50"},
      {"binder": "B13", "Kd": "< 50"},
      {"binder": "B14", "Kd": "< 50"},
      {"binder": "B15", "Kd": "< 50"}
    ]},
    {"molecular_target": "T1, SARS-CoV-2 Receptor Binding Domain …", "assay": "SPR (Carterra LSA); scFv captured by anti-V5, RBD as analyte", "units": {"Kd": "nM", "koff": "s⁻¹", "kon": "M⁻¹ s⁻¹"}, "values": [
      {"binder": "B1", "Kd": 6.48, "koff": 0.00088, "kon": 140000},
      {"binder": "B16", "Kd": 32.5, "koff": 0.0108, "kon": 331000},
      {"binder": "B17", "Kd": 41.5, "koff": 0.0095, "kon": 230000},
      {"binder": "B18", "Kd": 48.2, "koff": 0.00987, "kon": 205000},
      {"binder": "B2", "Kd": 28, "koff": 0.0122, "kon": 437000},
      {"binder": "B3", "Kd": 35, "koff": 0.011, "kon": 310000},
      {"binder": "B4", "Kd": 12.1, "koff": 0.00191, "kon": 158000},
      {"binder": "B5", "Kd": 4.34, "koff": 0.00279, "kon": 642000},
      {"binder": "B6", "Kd": 2.89, "koff": 0.00123, "kon": 427000},
      {"binder": "B19", "Kd": 7.8, "koff": 0.000725, "kon": 93000},
      {"binder": "B7", "Kd": 10, "koff": 0.00046, "kon": 46000},
      {"binder": "B20", "Kd": 31.9, "koff": 0.00781, "kon": 245000},
      {"binder": "B8", "Kd": 40.6, "koff": 0.0084, "kon": 210000},
      {"binder": "B9", "Kd": 3.14, "koff": 0.00035, "kon": 110000},
      {"binder": "B10", "Kd": 6.08, "koff": 0.00232, "kon": 381000},
      {"binder": "B11", "Kd": 18.2, "koff": 0.0097, "kon": 532000},
      {"binder": "B12", "Kd": 30.8, "koff": 0.0115, "kon": 374000},
      {"binder": "B13", "Kd": 32.7, "koff": 0.0049, "kon": 150000},
      {"binder": "B14", "Kd": 26.4, "koff": 0.0029, "kon": 110000},
      {"binder": "B15", "Kd": 0.95, "koff": 0.00056, "kon": 590000},
      {"binder": "B21", "Kd": 48.7, "koff": 0.0118, "kon": 242000}
    ]}
  ]
}
